From patent publication US20110206625A1 come the findings set out here.

In this assay the target is recombinant human BMP6 (human) (UniProt P22004). Description: cell-based or functional assay.
Sequence of UniProt P22004 (P22004 382-513 limits assumed): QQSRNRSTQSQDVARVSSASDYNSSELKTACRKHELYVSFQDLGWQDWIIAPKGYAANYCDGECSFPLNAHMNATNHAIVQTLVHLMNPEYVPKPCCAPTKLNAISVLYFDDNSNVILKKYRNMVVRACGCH

As to “recombinant human Sclerostin (from UniProt Q9BQB4 24-213)”, the BMP6-induced melanin content in human epidermal melanocytes (72 h) is 15%.
